# Data: the nanobody polyreactivity screen of Harvey et al. (2022)
# Experiment: yeast display, Sf9 membrane polyspecificity reagent, FACS + sequencing; frameworks hold sequencing errors
# How it was run: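 After 36–48 hours of galactose induction, yeast (Saccharomyces cerevisiae BJ5465) displaying a synthetic nanobody library were stained at 4 °C for 1 hour with 10% biotinylated, detergent-solubilized Sf9 membrane reagent. Streptavidin microbeads enriched the stained cells before FACS sorting into low and high (top ~1%) gates on anti-HA and streptavidin fluorescence. Each clone's polyreactivity label reflects its gate of origin.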
sequence,measurement,value
QVQLVESVGGLDQAGGSLRLSCAASGRIFRYYAMGWDRQAPGKERELVAAITSDGRTYYADSVKGRFTISRDNAKNTVYLQMNSLKPEDTAVYYCAADHHSYRYGGYYYWGQGTQVTVSS,polyreactivity (PSR sort gate),low polyreactivity
QVQLVESVGGLFHEGGSLRLSSAASGFIFWANAMGCYRQAPGKERELVAAIRNSGGRTYYADSVKGRFTISRDKAKNTVYLQMNSLKPEDTAVYFCATDTGYPYSYDLFDSYYWGQGTQLTVSS,polyreactivity (PSR sort gate),low polyreactivity
QVQLVESVGGLFQAGGSLRLSCDASGFTFTAYAMGWYIQAPGKERELVAAINWSGSRTYYADSVKGRFTISRDNAKNTVYLQMNSLKPEDTAVYYCNTATSKSSYRHYDYWGQGTQVTVSS,polyreactivity (PSR sort gate),high polyreactivity
QVQLVESVGGLVKAGGRLRLSCAASGRIFPPNALACSRQAPGKERELVADNNFSGDSTYYADSVKGRFTISRDNAKNTVYLQMNSLKPEDTSVYYCAAVISLVSYYYWGQATQVTVSS,polyreactivity (PSR sort gate),low polyreactivity
QVQLVESVGGLVKAGVSLRLSCAASGYIFPYYAMGWYRQAPGKERELVAAISRSGGGTYYADSVKGRFTISRYNAKNTVYFQMKSLKPVVTAVYYFNRRSGQVDVYDYWGQGTKVTVSS,polyreactivity (PSR sort gate),low polyreactivity
QVQLVESVGGLVQAGGILRLSSAASGSTFDINEKGWYRQAPGKERELVAAITWSGDSTYYADSVKGRFTISRDNAKNTVYLQMNSLKPVDTAVYYCSAYYPYSYYEDASYYYWGQGTQVTLSS,polyreactivity (PSR sort gate),low polyreactivity
QVQLVESVGGLVQAGGRLRLSCAASGSIFLYNAMGWYRQAPGKERELVAVINGRGGTYYADSVKGRFTISRDNAKNTVYLQMNSLKPEDTAVYYCATGYPPSAGYDSVRFEDRDSWGQGTQVTVSS,polyreactivity (PSR sort gate),low polyreactivity
QVQLVESVGGLVQAGGRLRLSCAASGSIFSIYGMGWYRQAPGKERELVAVISKSGTRTFYADSVKGRFTISRDNAKNTVYLQMNSLKPEDTAVYYCNARIFFRRNVTQVRMDYWGQGTQVTVSS,polyreactivity (PSR sort gate),high polyreactivity
QVQLVESVGGLVQAGGRLRLSCAASGSIFWFNAMGWYRQAPGKEREFVASISRSGGTTYYADSVKGRFTISRDNAKNTVYLQMNSLKPEDTAVYYCNARAYGNGLGTGYFGNHRYDYWGQGTQVTVSS,polyreactivity (PSR sort gate),low polyreactivity
QVQLVESVGGLVQAGGRLRLSCAASGSTFAFNAMGWSRQAPGKEREFVAVISYRTDNTYYADSVKGRFTISRDNAKNTVYLQMNSLKPEDTAVYYCAAASSYSKKPYYSYGYWGQGTQVTVSS,polyreactivity (PSR sort gate),high polyreactivity
QVQLVESVGGLVQAGGSHRLSGAASGRTLYRYGLGWYRQAPGKDRELVAVIDRGGSTNYADSVKGRFTISRDNAKNTVYLQMNSLKPEDTAVYYCAKRWTAREAWRKGMGYWGQGTKVTVSS,polyreactivity (PSR sort gate),high polyreactivity
QVQLVESVGGLVQAGGSLPLSCAASGSTFVDYDMGWYRQAPGKERELVAAITYSGARTYYADSVKGRFTISRDNAKNTVYLQMNSLTPEDSAVYYGNADQRTASDQLEFDYWGQGTQVTVSS,polyreactivity (PSR sort gate),low polyreactivity
QVQLVESVGGLVQAGGSLRFSCAASGRIFKWYAMGWYRQAPGKEREFVAGIRWGGGRTHYADSVKGRFTISRDNAKNTVYLQMNSLKPEDTAVYYCAADNRGNTVYYRNYYWGQGTQVTVSS,polyreactivity (PSR sort gate),high polyreactivity
QVQLVESVGGLVQAGGSLRLICAASGIIFKFNAMGWYRQAPGKEREFVAAIRWRGGSTYYADSVKGRFTISRDNAKNTVYLQMNSLKPEDTAVYYCAATYRTGYYYWGQGTQVTVSS,polyreactivity (PSR sort gate),high polyreactivity
QVQLVESVGGLVQAGGSLRLSCAASGFIFSWYAMGWYRQAPGKERELVAAINSGGRTSYADSVKGRFTISRDNAKNTVYLQMNSLKPEDTAVYYCAAPVYYYNRARYSYDYWGQGTQVTVSS,polyreactivity (PSR sort gate),high polyreactivity
QVQLVESVGGLVQAGGSLRLSCAASGFIFYRYAMGWYRKAPGKEWEFVAAINYSATSTYYADSVKGRFTISRDNAKNTVYLQMNSLKPEDTAVYYCAAKRVRRLSYETKYDYWGQGTQVTVSS,polyreactivity (PSR sort gate),high polyreactivity
QVQLVESVGGLVQAGGSLRLSCAASGFILGYNAMGWYRQAPGKERELVADITFSGGGTNYADSVKGRFTISRDNAKNTVYLQMNSLKPEDTAVYDCNAAAFSQLRVRYDYWGQGTQVTVSS,polyreactivity (PSR sort gate),low polyreactivity
QVQLVESVGGLVQAGGSLRLSCAASGFTFGYYAMGWYRQAPGKERELVASISRSGGSTNYADSVKGRFTISRDNAKNTVYLQMNSLKPEDTAVYYCAKPLWDPKYDYWGQGTQVTVSS,polyreactivity (PSR sort gate),high polyreactivity
QVQLVESVGGLVQAGGSLRLSCAASGFTFNGYAMGWYRQAPGKERELVAAINISGGSTYYADSVKGRFTISRDNAKNTVYLQMNSLKPEDTAVYYCAARLWGIRYSYRYGYWGQGTQVTVSS,polyreactivity (PSR sort gate),high polyreactivity
QVQLVESVGGLVQAGGSLRLSCAASGFTFRVNAMGWYIQAPGKERELVAAISSGGSTNYADTVKGRFTISRDNAKNTVYLQMNSLKPEDTAVYYCAKRFKYIYYWGQGTQVTVSS,polyreactivity (PSR sort gate),high polyreactivity
QVQLVESVGGLVQAGGSLRLSCAASGFTSWDNDMGWYRQAPGKERELVAAISRGGSTNYADSVKGRFTISRDNAKNTVYLQMNSLKPEDTAVYYCATAAVTPVWYDYWGQGTQVTVSS,polyreactivity (PSR sort gate),low polyreactivity
QVQLVESVGGLVQAGGSLRLSCAASGGIFNGYAMGWYRQAPGKERELVAAITASGARTYYADSVKGRFTISRDNAKNTVYLQMNSLKPEDTAVYYCAKGFSYPGGPYYYFLGYGYWGQGTQVTVSS,polyreactivity (PSR sort gate),high polyreactivity
QVQLVESVGGLVQAGGSLRLSCAASGIILLYYALGWYRQAPGKERELVAAITTSGGRTYYADSVKGRFTISRDNAKNTVYLQMNSLKPEDTAVYYCAASTQGTYYPYKRYDYWGQGTQVTVSS,polyreactivity (PSR sort gate),high polyreactivity
QVQLVESVGGLVQAGGSLRLSCAASGITFSTNAMGWYRQAPGKERELVAAITSVTSTYYADSVKGRFTISRDNAKNTVYLQMNSLKPEDTAVYYCASRLSRWPYFYEYNYWGQGTQVTVSS,polyreactivity (PSR sort gate),low polyreactivity
QVQLVESVGGLVQAGGSLRLSCAASGITFTVYAMGWYRQAPGKERELVAAISSSGSTTYADSVKGRFTISRDNAKNTVYLQMNSLKPEDTAVYYCAAYSDYYLDQWYGYWGQGTQVTVSS,polyreactivity (PSR sort gate),low polyreactivity
QVQLVESVGGLVQAGGSLRLSCAASGITFYDNAMGWYRQAPGKERELVAGISYSGGRTYYADSVKGRFTISRDNAKNTVYLQMNSLKPEDTAVYYCNARFGKYRSRQGYYYWGQGTQVTVSS,polyreactivity (PSR sort gate),high polyreactivity
QVQLVESVGGLVQAGGSLRLSCAASGITSYRYTKGWYRQAPGKARELVAAITISGGRTYYGDSVKGRFTISRDNAKNTVYLQLNSLKPEDTAVYYCAAGWRSGFDYWGQGTQVTVSS,polyreactivity (PSR sort gate),high polyreactivity
QVQLVESVGGLVQAGGSLRLSCAASGLNFSYYAMGWYRQAPGKERELVAAIDWISGSTYYADSVKGRFTISRDNAKNTVYLQMNSLKPEDTAVYYCAAYGSFWYAGFGYWGQGTQVTVSS,polyreactivity (PSR sort gate),low polyreactivity
QVQLVESVGGLVQAGGSLRLSCAASGLTFWYYAMGCYRQAPGKERELVARITRSGVGTYYADSVKGRFTISRDNAKNTVYLQMNSLKAEDTAVYYCNARYQYSWVRYGYDYWGQGTQVTVSS,polyreactivity (PSR sort gate),high polyreactivity
QVQLVESVGGLVQAGGSLRLSCAASGNIFYSYDMGWYRQAPGKERELVATISYRGTSTNYADSVKGRFTISRDNAKNTVYLQMNSLKPEDTAVYYCASDRGSHFARGSAYDYWGQGTQVTVSS,polyreactivity (PSR sort gate),low polyreactivity
QVQLVESVGGLVQAGGSLRLSCAASGNTFRYNTMGWYRQAPGKERELVAVITRRGSSTYYADSVKGRFTISRDNAKNTVYLQMNSLKPEDTAVYYCAAGYGRYGYVYSGYGKWEDYWGQGTQVTVSS,polyreactivity (PSR sort gate),high polyreactivity
QVQLVESVGGLVQAGGSLRLSCAASGRIFFYYGRGWYRQAPGKERELVAAITKRSSSTYYADSVKGRFTISRDNAKNTVYLQMNSLKPEDTAVYYCNAYPYRYVRRMDYWGQGTQVTVSS,polyreactivity (PSR sort gate),high polyreactivity
QVQLVESVGGLVQAGGSLRLSCAASGRIFGWYAMGWYRQAPGKERELVAAITSGGTTYYADSVKGRFTISRDNAKNTVYLQMNSLKPEDTAVYYCAKYHWRLSFSRYPYDYWGQGTQVTVSS,polyreactivity (PSR sort gate),high polyreactivity
QVQLVESVGGLVQAGGSLRLSCAASGRIFNYNAMGWYRQAPGKERELVAAITSSGDSTNYADSVKGRFTISRDNAKNTVYLQMNSLKPEDTAVYYCNASSPYDYDWGQGTQVTVSS,polyreactivity (PSR sort gate),low polyreactivity
QVQLVESVGGLVQAGGSLRLSCAASGRIFVYYAMGWYRQAPGKERELVAAINSSGGRTYYADSVKGRVTISRDNAKNTVSLQMNSLQPEDTAVYYCAAVYRSWTSSNGRNYWGQGTQVTVAS,polyreactivity (PSR sort gate),high polyreactivity
QVQLVESVGGLVQAGGSLRLSCAASGRIFYFYAMGWYRQAPGKERELVASISSGSSTNYADSVKGRFTISRDNAKNTVYLQMNSLKPEDTAVYYCAAQPWHGSRPRSYYWGQGTQVTVSS,polyreactivity (PSR sort gate),high polyreactivity
QVQLVESVGGLVQAGGSLRLSCAASGRILRTNALGWYRKAPGKERELVAAISSDGSTYYADSVKGRFTISRDNAKNTVYLQMNSLKPEDTAVYYCAARLFYRGPRFDYWGQGTQVTVSS,polyreactivity (PSR sort gate),low polyreactivity
QVQLVESVGGLVQAGGSLRLSCAASGRIYAMGLYRPAPGKERELVAAISRGGSTYYADSVKGRFTISRDNAKNTVYLQMNSLKPEDSAVYYCARRYASTGYDYWGQGTQVTESS,polyreactivity (PSR sort gate),high polyreactivity
QVQLVESVGGLVQAGGSLRLSCAASGRTFKFYAMGWYRQAPGKERELVAAISSSGGRTYYADSVKGRFTISRDIAKNTVYLQMNSLKPVDTAVYYCARSSDYYFFGHYYWGQGTQVTVSS,polyreactivity (PSR sort gate),high polyreactivity
QVQLVESVGGLVQAGGSLRLSCAASGRTFWYYSMGWDREAPGKERELVAAITSGGSTNYADSVKGRFTISRDNAKNTVYLQIYSLKPEDTAVYYCDTDNPVFEYYYWGQGTQVTVSS,polyreactivity (PSR sort gate),low polyreactivity
QVQLVESVGGLVQAGGSLRLSCAASGRTFYGYAMGWYRKAPGKERELVAAISTGGGRTYYADSVKGRFTISRDNAKNTVYLQMNSLKPEDTAVYYCAARRAYPHYRVDYWGQGTQVTVSS,polyreactivity (PSR sort gate),high polyreactivity
QVQLVESVGGLVQAGGSLRLSCAASGRTLGKYAMGWYIQAPGKERELVAAIRWTGTSTYYADSVKGRFTISRDNAKNTVYLQMNSLKPEDTAVYYCAKGTVHSRPDFGRGWYRWDDYWGQGTQVTVSS,polyreactivity (PSR sort gate),high polyreactivity
QVQLVESVGGLVQAGGSLRLSCAASGSIFDVNAMGWYRQAPGKERELVAAITSSGGSTYYADSVKGRFTISRDNAKNTVYLQMNSLKPEDTAVYYCAAYSLYTMYWGQGTQVTVSS,polyreactivity (PSR sort gate),low polyreactivity
